Consider three molecules from paper PMC4148193, “Chromatin Insulator Factors Involved in Long-Range DNA Interactions and Their Role in the Folding of the Drosophila Genome” (PLoS Genetics, 2014).

Data set [1] concerns the molecule itself. The experiment in a line: SEC; gel-filtration analysis of CP190-BTB/POZ; conditions not shown. For orientation: Size exclusion chromatography separates by hydrodynamic size, large species first.
For data set [2], the target named is T1, Chromator, full-length, His-tagged (Drosophila, UniProt Q86BS3 1-926).
T1 construct: Chromator (Chriz), Drosophila; amplified from S2 cell cDNA; also called Chriz; source: E. coli BL21 (DE3)-pLysS, purified
T1 sequence (looked up): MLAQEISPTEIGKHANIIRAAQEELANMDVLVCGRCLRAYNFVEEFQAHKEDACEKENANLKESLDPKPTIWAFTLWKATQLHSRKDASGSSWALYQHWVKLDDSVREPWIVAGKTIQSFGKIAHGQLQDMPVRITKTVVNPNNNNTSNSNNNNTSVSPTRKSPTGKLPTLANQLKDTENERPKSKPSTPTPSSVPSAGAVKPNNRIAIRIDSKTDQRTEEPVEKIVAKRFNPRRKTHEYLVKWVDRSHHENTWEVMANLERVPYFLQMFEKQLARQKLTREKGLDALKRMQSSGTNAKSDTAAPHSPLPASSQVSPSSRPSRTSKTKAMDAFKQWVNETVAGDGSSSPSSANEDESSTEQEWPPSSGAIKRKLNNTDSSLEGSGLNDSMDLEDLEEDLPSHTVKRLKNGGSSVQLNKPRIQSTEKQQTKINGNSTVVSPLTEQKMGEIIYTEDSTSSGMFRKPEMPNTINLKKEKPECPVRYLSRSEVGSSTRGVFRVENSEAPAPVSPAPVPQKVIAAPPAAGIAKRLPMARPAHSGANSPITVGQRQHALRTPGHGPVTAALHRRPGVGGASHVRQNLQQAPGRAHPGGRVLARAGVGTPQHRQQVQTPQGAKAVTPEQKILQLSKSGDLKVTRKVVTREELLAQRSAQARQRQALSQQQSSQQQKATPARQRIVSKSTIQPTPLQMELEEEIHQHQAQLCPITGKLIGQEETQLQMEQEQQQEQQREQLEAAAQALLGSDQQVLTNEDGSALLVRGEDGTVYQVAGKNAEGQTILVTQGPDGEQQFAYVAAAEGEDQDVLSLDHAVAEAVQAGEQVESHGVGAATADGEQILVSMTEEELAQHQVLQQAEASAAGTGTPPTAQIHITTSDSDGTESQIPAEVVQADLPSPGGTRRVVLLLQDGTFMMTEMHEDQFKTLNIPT
Put plainly: fluorescence polarisation; fluorescence anisotropy of CP190-BTB/POZ-Cy5 as reporter of Chromator binding; apparent affinity. Particulars: both partners purified.

In a further data set the target is T2, BEAF32 (BEAF32B) (Drosophila, UniProt Q94513 1-282).
T2 sequence: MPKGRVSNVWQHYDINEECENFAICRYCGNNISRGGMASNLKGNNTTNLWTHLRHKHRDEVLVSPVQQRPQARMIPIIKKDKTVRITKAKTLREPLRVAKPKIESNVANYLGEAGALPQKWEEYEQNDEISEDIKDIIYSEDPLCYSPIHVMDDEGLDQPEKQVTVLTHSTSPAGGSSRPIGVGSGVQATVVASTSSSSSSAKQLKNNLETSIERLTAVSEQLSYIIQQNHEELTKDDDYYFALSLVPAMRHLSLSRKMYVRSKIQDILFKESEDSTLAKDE
Put plainly: fluorescence anisotropy; single-site fit; 20 uM ZnSO4; FA/FCS: 30 mM Tris/HCl pH 7.5, 100 mM NaCl, 20 uM ZnSO4, 5 mM mercaptoethanol, 0.01 mg/ml BSA, 0.004% Tween20, 2.5 nM DNA; EMSA: 150 mM NaCl, 30 mM Tris/HCl pH. Particulars: protein: recombinant; tags: N-term MBP; C-term 6xHis; blunt.

Another data set has as its target T3, CP190 (Drosophila, UniProt Q24478 1-1096).
T3 sequence: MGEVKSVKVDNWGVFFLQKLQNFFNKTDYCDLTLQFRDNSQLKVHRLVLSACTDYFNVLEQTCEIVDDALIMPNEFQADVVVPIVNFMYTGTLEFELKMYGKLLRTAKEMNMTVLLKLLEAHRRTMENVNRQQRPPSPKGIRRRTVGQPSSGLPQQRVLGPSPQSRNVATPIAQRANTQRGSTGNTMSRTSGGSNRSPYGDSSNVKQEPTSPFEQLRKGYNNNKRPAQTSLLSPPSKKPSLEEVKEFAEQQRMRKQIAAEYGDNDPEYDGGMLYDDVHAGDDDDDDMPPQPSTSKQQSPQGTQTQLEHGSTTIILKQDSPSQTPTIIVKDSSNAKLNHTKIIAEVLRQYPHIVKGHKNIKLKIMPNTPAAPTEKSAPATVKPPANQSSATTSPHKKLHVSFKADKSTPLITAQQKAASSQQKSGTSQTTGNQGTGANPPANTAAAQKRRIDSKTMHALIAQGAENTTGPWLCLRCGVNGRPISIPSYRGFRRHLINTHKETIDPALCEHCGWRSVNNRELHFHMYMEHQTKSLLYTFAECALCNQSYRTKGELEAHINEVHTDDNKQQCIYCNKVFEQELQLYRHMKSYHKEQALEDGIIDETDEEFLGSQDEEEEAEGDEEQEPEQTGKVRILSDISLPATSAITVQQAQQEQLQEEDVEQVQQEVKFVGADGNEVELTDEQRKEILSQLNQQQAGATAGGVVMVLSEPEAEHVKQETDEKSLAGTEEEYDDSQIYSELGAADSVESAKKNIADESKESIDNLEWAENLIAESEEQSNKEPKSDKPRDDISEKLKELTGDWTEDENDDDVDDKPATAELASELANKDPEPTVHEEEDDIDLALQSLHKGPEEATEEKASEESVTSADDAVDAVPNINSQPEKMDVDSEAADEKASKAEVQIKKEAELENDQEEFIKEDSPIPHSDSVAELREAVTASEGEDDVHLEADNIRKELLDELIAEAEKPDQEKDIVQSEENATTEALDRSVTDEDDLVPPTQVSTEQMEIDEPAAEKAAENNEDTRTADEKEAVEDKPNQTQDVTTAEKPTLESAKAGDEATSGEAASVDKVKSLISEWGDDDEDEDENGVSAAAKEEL
Put plainly: fluorescence anisotropy; Hill n=2±0.3; 20 uM ZnSO4; FA/FCS: 30 mM Tris/HCl pH 7.5, 100 mM NaCl, 20 uM ZnSO4, 5 mM mercaptoethanol, 0.01 mg/ml BSA, 0.004% Tween20, 2.5 nM DNA; EMSA: 150 mM NaCl, 30 mM Tris/HCl pH. To be noted: protein: recombinant; tags: N-term 6xHis; blunt. On the technique in general: In fluorescence polarisation assays a small probe gives low polarisation when free and higher when bound to something large.

B1: CP190-BTB/POZ (BTB/POZ domain of CP190), His-tagged (domain or fragment, Drosophila)
chain: MGEVKSVKVDNWGVFFLQKLQNFFNKTDYCDLTLQFRDNSQLKVHRLVLSACTDYFNVLEQTCEIVDDALIMPNEFQADVVVPIVNFMYTGTLEFELKMYGKLLRTAKEMNMTVLLKLLEAHRRTMENVNRQQR
notes: N-terminal BTB/POZ domain of CP190, Drosophila; source: E. coli BL21 (DE3)-pLysS, purified
Take B1: in data set [1], the stoichiometry N – broadly, a count of units in the complex or per binding partner – was 2.

B2: CP190-BTB/POZ-Cy5 (CP190-BTB/POZ Cy5-labelled on its N-terminal) (domain or fragment, Drosophila)
chain: B1 chain
modifications: Cy5 on the N-terminal
notes: N-terminal BTB/POZ domain of CP190, Drosophila; same construct as m4, labelled with Cy5; Same protein as m4 with a Cy5 label; source: E. coli BL21 (DE3)-pLysS, purified
B2: in data set [2], the Kd was roughly 50 nM.

B3: DNANS (dsDNA)
DNA 1: GGACAGGTATTGTGCCATACTGACCACATCGTCTTGGTCTATAAGCTCCACGACATCC
DNA 2: GGATGTCGTGGAGCTTATAGACCAAGACGATGTGGTCAGTATGGCACAATACCTGTCC
For B3, the Kd with BEAF32 (BEAF32B) turned out to be 165 ± 30 nM; with CP190 it was 109 ± 5 nM.
